The values below come from the supplement of paper PMC5998384.

Series [1] deals with HeLa Kyoto. As to the kind of experiment: solubility change mitosis vs G1/S (difference of NP-40 vs SDS log2 ratios) (log2 ratio difference); higher = more soluble in mitosis.
Series [2] deals with HeLa Kyoto. As to the kind of experiment: thermal stability score vs G1/S (z-score of summed log2 fold changes over temperatures); higher = more thermally stable than in G1/S.
For series [3], the system named is HeLa Kyoto. Kind of series: solubility in G1/S (NP-40 vs SDS abundance) (log2 ratio); higher = more soluble. The conditions noted are these: cell cycle stage: G1/S.
Series [4] deals with HeLa Kyoto. As to the kind of experiment: melting temperature (median over replicates), in situ; higher = more thermally stable.
Setting [5] is: cell cycle stage: early G1 (4.5 h after nocodazole release).
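For melting temperature (median over replicates), in situ in this document: HeLa Kyoto cells synchronized by double thymidine or nocodazole block, proteins quantified by TMT10plex mass spectrometry, three independent biological replicates.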
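For solubility change mitosis vs G1/S (difference of NP-40 vs SDS log2 ratios) in this document: synchronized HeLa Kyoto cells (double thymidine block for G1/S, nocodazole release for mitosis), protein amounts in NP-40 versus SDS lysates quantified by mass spectrometry, three biological replicates.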
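For solubility in G1/S (NP-40 vs SDS abundance) in this document: HeLa Kyoto cells arrested at G1/S by double thymidine block, proteins quantified by TMT10plex mass spectrometry in mild NP-40 versus SDS extracts, three biological replicates.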
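For thermal stability score vs G1/S (z-score of summed log2 fold changes over temperatures) in this document: synchronized HeLa Kyoto cells, proteins quantified by TMT10plex mass spectrometry, three biological replicates, mitosis taken 0.5 h after nocodazole release, G1/S directly after double thymidine block.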

Consider “MTVSGPGTPEPRPATPGASSVEQLRKEGNELFKCGDYGGALAAYTQALGLDATPQDQAVLHRNRAACHLKLEDYDKAETEASKAIEKDGGDVKALYRRSQALEKLGRLDQAVLDLQRCVSLEPKNKVFQEALRNIGGQIQEKVRYMSSTDAKVEQMFQILLDPEEKGTEKKQKASQNLVVLAREDAGAEKIFRSNGVQLLQRLLDMGETDLMLAALRTLVGICSEHQSRTVATLSILGTRRVVSILGVESQAVSLAACHLLQVMFDALKEGVKKGFRGKEGAIIVDPARELKVLISNLLDLLTEVGVSGQGRDNALTLLIKAVPRKSLKDPNNSLTLWVIDQGLKKILEVGGSLQDPPGELAVTANSRMSASILLSKLFDDLKCDAERENFHRLCENYIKSWFEGQGLAGKLRAIQTVSCLLQGPCDAGNRALELSGVMESVIALCASEQEEEQLVAVEALIHAAGKAKRASFITANGVSLLKDLYKCSEKDSIRIRALVGLCKLGSAGGTDFSMKQFAEGSTLKLAKQCRKWLCNDQIDAGTRRWAVEGLAYLTFDADVKEEFVEDAAALKALFQLSRLEERSVLFAVASALVNCTNSYDYEEPDPKMVELAKYAKQHVPEQHPKDKPSFVRARVKKLLAAGVVSAMVCMVKTESPVLTSSCRELLSRVFLALVEEVEDRGTVVAQGGGRALIPLALEGTDVGQTKAAQALAKLTITSNPEMTFPGERIYEVVRPLVSLLHLNCSGLQNFEALMALTNLAGISERLRQKILKEKAVPMIEGYMFEEHEMIRRAATECMCNLAMSKEVQDLFEAQGNDRLKLLVLYSGEDDELLQRAAAGGLAMLTSMRPTLCSRIPQVTTHWLEILQALLLSSNQELQHRGAVVVLNMVEASREIASTLMESEMMEILSVLAKGDHSPVTRAAAACLDKAVEYGLIQPNQDGE [UNC45A]”, for which the “solubility change mitosis (log2)” value in series [1] is -0.111. The thermal stability score in series [2] (setting [5]) was determined as 0.271; in series [2] (cell cycle stage: mitosis) it was 1.37. Besides, the “solubility in G1/S (log2)” value in series [3] is 0.2. For the same sequence, the melting temperature in series [4] (cell cycle stage: G1/S) was found to be 48.6 °C; in series [4] (cell cycle stage: mitosis), 48.8 °C.

Take “MVAVLGGRGVLRLRLLLSALKPGIHVPRAGPAAAFGTSVTSAKVAVNGVQLHYQQTGEGDHAVLLLPGMLGSGETDFGPQLKNLNKKLFTVVAWDPRGYGHSRPPDRDFPADFFERDAKDAVDLMKALKFKKVSLLGWSDGGITALIAAAKYPSYIHKMVIWGANAYVTDEDSMIYEGIRDVSKWSERTRKPLEALYGYDYFARTCEKWVDGIRQFKHLPDGNICRHLLPRVQCPALIVHGEKDPLVPRFHADFIHKHVKGSRLHLMPEGKHNLHLRFADEFNKLAEDFLQ [BPHL]”: the “solubility change mitosis (log2)” value in series [1] is -0.00389. The thermal stability score in series [2] (setting [5]) was 0.683; in series [2] (cell cycle stage: mitosis) it was 0.206. Also, the “solubility in G1/S (log2)” value in series [3] turned out to be 0.0569. In addition, the melting temperature amounted to 52.7 °C in series [4] (cell cycle stage: G1/S) and 52.4 °C in series [4] (cell cycle stage: mitosis).

As for “MVCGGFACSKNCLCALNLLYTLVSLLLIGIAAWGIGFGLISSLRVVGVVIAVGIFLFLIALVGLIGAVKHHQVLLFFYMIILLLVFIVQFSVSCACLALNQEQQGQLLEVGWNNTASARNDIQRNLNCCGFRSVNPNDTCLASCVKSDHSCSPCAPIIGEYAGEVLRFVGGIGLFFSFTEILGVWLTYRYRNQKDPRANPSAFL [TSPAN13]”, the “solubility change mitosis (log2)” value in series [1] is -0.273. Besides, the thermal stability score was -0.55 in series [2] (setting [5]) and -1.07 in series [2] (cell cycle stage: mitosis). In addition, the “solubility in G1/S (log2)” value in series [3] turned out to be 0.0697. Besides, the melting temperature is 57.7 °C in series [4] (cell cycle stage: G1/S) and 57.6 °C in series [4] (cell cycle stage: mitosis).

Regarding “MVDREQLVQKARLAEQAERYDDMAAAMKNVTELNEPLSNEERNLLSVAYKNVVGARRSSWRVISSIEQKTSADGNEKKIEMVRAYREKIEKELEAVCQDVLSLLDNYLIKNCSETQYESKVFYLKMKGDYYRYLAEVATGEKRATVVESSEKAYSEAHEISKEHMQPTHPIRLGLALNYSVFYYEIQNAPEQACHLAKTAFDDAIAELDTLNEDSYKDSTLIMQLLRDNLTLWTSDQQDDDGGEGNN [YWHAG]”, the “solubility change mitosis (log2)” value in series [1] worked out at 0.206. Moreover, the thermal stability score was -2.23 in series [2] (setting [5]) and -4.24 in series [2] (cell cycle stage: mitosis). Moreover, the “solubility in G1/S (log2)” value in series [3] was 0.35. The melting temperature in series [4] (cell cycle stage: G1/S) is 55.1 °C; in series [4] (cell cycle stage: mitosis) it was 54.8 °C.
